From article PMC8183418 come the findings set out here.

Data set [1] addresses T1, ISG20 (UniProt Q96AZ6 1-181). The experiment in a line: EMSA. On the technique in general: In EMSA bound probe runs differently from free probe, usually more slowly.
The target in data set [2] is T1, ISG20. The experiment in a line: EMSA. This is another data set of the same source.

Read-outs that look alike come from different tables or passages of the source.

T1 sequence (Q96AZ6 whole entry): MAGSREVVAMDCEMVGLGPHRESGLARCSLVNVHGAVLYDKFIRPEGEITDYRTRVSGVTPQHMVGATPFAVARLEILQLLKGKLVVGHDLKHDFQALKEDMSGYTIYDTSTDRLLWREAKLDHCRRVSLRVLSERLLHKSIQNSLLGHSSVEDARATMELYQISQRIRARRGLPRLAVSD

B1: 033: (-) ssDNA (ssDNA)
DNA: GGTCGTCCGCAGGATTCAGCGCCG
Take B1: the binding result in the data set with ISG20 [1] was “binds”.

B2: 036: (+) ssDNA (ssDNA)
DNA: CGGCGCTGAATCCTGCGGACGACC
As for B2, the binding result in the data set with ISG20 [1] is reported as “binds”.

B3: 035: dU-containing (-) ssDNA (ssDNA)
DNA: GGTUGTUUGUAGGATTUAGUGUUG
modifications: all deoxycytidines replaced by deoxyuridine; U = dU
On to B3, for which the binding result in the data set with ISG20 [2] is on record as “binds”.
